# Results: US20240000932A1 (BOOSTIMMUNE, published 2024)
# B1: anti-TCTP human monoclonal antibody 1-2-4 (antibody, V domains shown)
# VH: QVQLVQSGAEVKKPGASVKVSCKASGYTFFSYAMHWVRQAPGQRLEWMGWINAGNGNTKYSQKFQDRVTITRDTSATTAYMELSSLRSEDTAVYYCASWVFDYWGQGTPVTVSS
# VL: DIVMTQTPLSSLVTLGQPASISCRSSQSLVHRDGNTYLSWLQQRPGQPPRLLIYKISNRFFGVPDRFSGSGAGTDFTLKISRVEAEDVGVYYCMQATQFPHTFGQGTKLEIK
# Target: T1, recombinant human TCTP (translationally controlled tumor protein) (human, UniProt P13693 1-172)
# T1 construct: The ELISA is only said to be 'on TCTP', and the screening beads were coated with human TCTP; also called HRF; Tpt1
# T1 sequence: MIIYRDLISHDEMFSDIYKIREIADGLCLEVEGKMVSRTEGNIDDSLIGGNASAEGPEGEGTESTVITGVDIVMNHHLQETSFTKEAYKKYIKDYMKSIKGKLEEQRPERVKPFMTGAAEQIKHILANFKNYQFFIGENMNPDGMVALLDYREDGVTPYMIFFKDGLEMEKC
# Test: ELISA on TCTP, after single B cell screening with human TCTP coated beads
# Experimental: Transgenic mice for preparing fully human antibodies (CAMOUSE®) were immunized by using a recombinant human TCTP (SEQ ID NO: 36), and standard single B cell screening method was used. Single viable B cell arrays were prepared by applying splenocyte of immunized mice to microarray chips. TCTP-specific antibody secreting single cells were screened on the microarray chip using human TCTP coated beads and then recovered by micromanipulation, mRNA were recovered from the single cells, and cDNA sequences encoding the variable regions of the IgG heavy (VH) and light (VL) chains were amplified by RT-PCR. The recombinant antibodies containing the VH and VL sequences are purified and tested by ELISA on TCTP. As a result, antibody 1-2-4 was obtained. The variable region sequences of antibody 1-2-4 are as follows. The antibody sequences for 1-2-4 were obtained from CAMOUSE® in cooperation with CAMAB (China) and GenScript (China).
binder,measurement,value
B1,binding result,binds
